Reference: patent US20190376034A1

Biological target: immune complexes (Dylight 650-labeled BSA + polyclonal rabbit anti-BSA IgG + human serum complement) (bovine) (UniProt P02769)
Assay: cell-based or functional assay

UniProt P02769, sequence (P02769 25-607, one chain of several): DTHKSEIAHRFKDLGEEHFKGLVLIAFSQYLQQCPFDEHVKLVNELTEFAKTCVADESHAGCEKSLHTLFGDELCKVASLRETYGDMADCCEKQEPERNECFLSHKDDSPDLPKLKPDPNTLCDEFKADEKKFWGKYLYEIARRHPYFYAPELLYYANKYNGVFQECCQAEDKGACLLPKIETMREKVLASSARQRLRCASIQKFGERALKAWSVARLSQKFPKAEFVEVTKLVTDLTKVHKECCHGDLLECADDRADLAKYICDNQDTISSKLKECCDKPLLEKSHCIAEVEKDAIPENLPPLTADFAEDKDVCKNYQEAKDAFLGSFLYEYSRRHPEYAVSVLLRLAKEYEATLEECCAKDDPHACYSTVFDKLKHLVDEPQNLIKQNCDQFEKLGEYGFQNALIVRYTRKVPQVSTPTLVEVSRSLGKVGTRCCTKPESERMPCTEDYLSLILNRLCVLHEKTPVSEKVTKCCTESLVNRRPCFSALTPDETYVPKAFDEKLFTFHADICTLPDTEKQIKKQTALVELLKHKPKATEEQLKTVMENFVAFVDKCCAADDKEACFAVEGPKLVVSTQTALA

uptake of fluorescent immune complexes by activated U937 macrophages in co-culture (flow cytometry): 2 fold
Substance: complement receptor 1 (CR1) exogenously over-expressed on the surface of cultured erythroid cells (from UniProt P17927 42-2039)
